In the supplement of paper PMC10724198:
± gives the standard deviation of the averaged measurements.

Test system: Saccharomyces cerevisiae
Assay: protein stability index of tFT-peptide fusion (C-terminal peptide) (PSI (0-1 scale)); higher = more stable (slower turnover)
Conditions: genetic background: wild type; temperature: 30 C
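Note: PSI is a weighted mean of sequencing reads over stability bins, variants kept only with over 10 reads, mCherry proximal and sfGFP distal, peptide attached via GGGS linker.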

SRALNAPAPFLP
protein stability index: 0.747 ± 0.044

SRELPPPLLRSS
protein stability index: 0.692 ± 0.072

SRFAGVGGGGAR
protein stability index: 0.667 ± 0.0071

SRFISTLPGLLA
protein stability index: 0.708 ± 0.035

SRFRSGVAALPS
protein stability index: 0.644 ± 0.033

SRFWLCGKCLWH
protein stability index: 0.7051 ± 0.0045

SRGIRPYYRLLL
protein stability index: 0.596 ± 0.0094

SRGSMLRRPLFV
protein stability index: 0.571

SRGTTLDREQQR
protein stability index: 0.687 ± 0.1

SRHLALPPPRSF
protein stability index: 0.702 ± 0.045

SRIFLFPTPTLF
protein stability index: 0.651 ± 0.096

SRISQSMRFPIK
protein stability index: 0.691 ± 0.027

SRKLRKSLFKKS
protein stability index: 0.689 ± 0.045

SRLFEFFISRNV
protein stability index: 0.706 ± 0.013

SRLFSFLYDVTA
protein stability index: 0.665 ± 0.036

SRLPGLELCNRI
protein stability index: 0.675 ± 0.041

SRLPIVGYLTLL
protein stability index: 0.56 ± 0.036

SRPIPSPPPRPV
protein stability index: 0.6473 ± 0.002

SRPLSSPSPPPS
protein stability index: 0.723 ± 0.043

SRPQTTGPLPPL
protein stability index: 0.684 ± 0.05

SRPTAPKRQTRY
protein stability index: 0.6886 ± 0.0046

SRRMFCACYVLS
protein stability index: 0.585 ± 0.031

SRRSKDRAGVWV
protein stability index: 0.642 ± 0.0079

SRRVAPEPSIPP
protein stability index: 0.683 ± 0.018

SRSGFWCYLLFL
protein stability index: 0.553 ± 0.039

SRSPPPPALPPL
protein stability index: 0.702 ± 0.05

SRSRCGSRAVAF
protein stability index: 0.694 ± 0.029

SRTLPPPSPGLH
protein stability index: 0.714 ± 0.013

SRTWGDVVSSGT
protein stability index: 0.715 ± 0.0099

SRVCPLLAPSLL
protein stability index: 0.671 ± 0.067

SRVKMKGTIRER
protein stability index: 0.701 ± 0.021

SRVYRSCKNVKR
protein stability index: 0.7383 ± 0.0069

SRWDPLYVPWRM
protein stability index: 0.696 ± 0.014

SRYYMDRGTLLE
protein stability index: 0.625 ± 0.018

SSASPVPVLPLT
protein stability index: 0.7 ± 0.018

SSCAWGGGLEVG
protein stability index: 0.683 ± 0.053

SSCGTITYLTPY
protein stability index: 0.745 ± 0.015

SSCSDLTKRLQQ
protein stability index: 0.669 ± 0.054

SSDSVPIVVGVV
protein stability index: 0.66 ± 0.056

SSEGTRTLIPPD
protein stability index: 0.7 ± 0.011

SSFLSLYSIPLP
protein stability index: 0.734 ± 0.044

SSGLMGFLFPMQ
protein stability index: 0.721 ± 0.017

SSHSFFLFRISL
protein stability index: 0.608 ± 0.061

SSKLFVVLPVSR
protein stability index: 0.599 ± 0.028

SSLPASPAPPHL
protein stability index: 0.702 ± 0.066

SSLPPSDQPPSP
protein stability index: 0.733 ± 0.071

SSLWVGFLGCVG
protein stability index: 0.646 ± 0.008

SSNLVDTCSPIG
protein stability index: 0.778 ± 0.081

SSPARASLTRPA
protein stability index: 0.674 ± 0.038

SSPESPPTPRSL
protein stability index: 0.678 ± 0.064

SSPHQVLTTRAP
protein stability index: 0.705 ± 0.13

SSPIIAGFPQQK
protein stability index: 0.676 ± 0.016

SSPLPPPPFAPL
protein stability index: 0.702 ± 0.022

SSPPPPPRPAPT
protein stability index: 0.681 ± 0.15

SSPPPRSLPSPP
protein stability index: 0.714 ± 0.046

SSPPWPILHSPP
protein stability index: 0.6952 ± 0.0014

SSPQASILIRDF
protein stability index: 0.778 ± 0.1

SSPSPASSPPPP
protein stability index: 0.677 ± 0.057

SSPVPLPPNPPA
protein stability index: 0.696 ± 0.038

SSRALFLPSFLP
protein stability index: 0.731 ± 0.04

SSSAPSSVPPLG
protein stability index: 0.734 ± 0.016

SSSCRCSRVIGR
protein stability index: 0.589 ± 0.064

SSSLHPRPSPPL
protein stability index: 0.692 ± 0.043

SSSLPPPPHAFP
protein stability index: 0.672 ± 0.036

SSSRLLALSSLH
protein stability index: 0.694 ± 0.053

SSSSSSALSGFE
protein stability index: 0.704 ± 0.051

SSSVPFRRYTHD
protein stability index: 0.711 ± 0.017

SSSVSARAVSLP
protein stability index: 0.6958 ± 0.0033

SSTERLELERMS
protein stability index: 0.705 ± 0.021

SSYFCESWMFDL
protein stability index: 0.756 ± 0.023

SSYHPPPSCLLP
protein stability index: 0.74596 ± 0.00061

STAPQDPARPSE
protein stability index: 0.707 ± 0.028

STCFPSIVRLGP
protein stability index: 0.612 ± 0.05

STDNNLISEPKT
protein stability index: 0.731 ± 0.097

STDQFFLFFCVG
protein stability index: 0.735 ± 0.2

STFYSALRVGTR
protein stability index: 0.668 ± 0.019

STGAVREFRFFA
protein stability index: 0.643 ± 0.053

STGLDPAAGAHL
protein stability index: 0.657 ± 0.06

STGTASAHRVQI
protein stability index: 0.66 ± 0.011

STHSRLCATVPP
protein stability index: 0.591 ± 0.027

STPLRNLEITIA
protein stability index: 0.679 ± 0.15

STPPPPALPEYQ
protein stability index: 0.698 ± 0.023

STPSPQPYIAPT
protein stability index: 0.735 ± 0.06

STSACPTPRTCS
protein stability index: 0.6192 ± 0.001

STSHSFGVLIAS
protein stability index: 0.662 ± 0.0094

STSIRHGLHSVE
protein stability index: 0.673 ± 0.05

STVRFGAPDYVH
protein stability index: 0.6774 ± 0.0026

SVAPRLFSPSHP
protein stability index: 0.6548 ± 0.0055

SVDMYTNNYKIH
protein stability index: 0.549 ± 0.038

SVESEWHLLLTP
protein stability index: 0.744 ± 0.013

SVFECKYNTLGR
protein stability index: 0.671 ± 0.017

SVFPSAVCSLGC
protein stability index: 0.6895 ± 0.005

SVGGSLFLGRRG
protein stability index: 0.68 ± 0.072

SVLPSLRPGSGL
protein stability index: 0.707 ± 0.016

SVLPSVAGIKSG
protein stability index: 0.593 ± 0.046

SVLTSYFFYLPP
protein stability index: 0.6869 ± 0.0046

SVPHRLLSVPPV
protein stability index: 0.6816 ± 0.0014

SVPPRPLALSLL
protein stability index: 0.76 ± 0.026

SVPSLPLSFPPF
protein stability index: 0.787 ± 0.032

SVRGWMILCTGM
protein stability index: 0.562 ± 0.049

SVSPPLPPSSIA
protein stability index: 0.673 ± 0.021
